According to publication PMC6269517:

Biological target: Cy5-S15(T79C), 30S ribosomal protein S15 (Escherichia coli, UniProt P0ADZ4 1-89, T79C)
Assay: single-molecule FRET (ZMW); pre-folded; >80% of molecules bind stably; read-out is H20-H22 closure, S15 label in this assay not stated; 50 mM Tris pH 7.5, 14 mM MgCl2, 20 mM NaCl, 150 mM KCl, 0.04 mM EDTA, 40 ug/ml BSA, 0.01% Triton X-100, 2 mM spermidine, 1 mM putrescine; 20 C unless stated; 0.

B1: 85 nt minimal 3-way junction (p0099A/B/C) (structured_RNA)
RNA 1: GGCGCACGCAGGCGGUUUGCCG
RNA 2: CGGCAAGCUUGAGUCUCGUAGAGGGGGGU
RNA 3: GCCCCCUGGACGAAGACUGACGCUCAGGUGCGCC
binding result: binds
